Patent publication US20130131319A1 (Chugai, published 2013)
Values belong to the binder of their own block, whether it stands above or below them.

Tests used:
human IL-6 (TORAY) [1] = target: T1, human IL-6 (TORAY) (human, UniProt P05231 30-212, limits assumed); assay: Biacore, antibody on protein A/G, IL-6 analyte, 37C, pH 5.5
T1 construct: also called hIL-6
Protocol: (§1) Assay was carried out using 10 mmol/l ACES/150 mmol/l NaCl containing 0.05% Surfactant P20 (pH 7.4 and pH 6.0) as a running buffer. After antibodies were bound to recombinant proteinA/G (Thermo Scientific) immobilized on sensor chips using an amino-coupling method, appropriate concentrations of human IL-6 (TORAY) as an analyte were injected. Assays were carried out at 37 degrees C. The assay results were analyzed using Biacore T100 Evaluation Software (GE Healthcare), and the association rate constant, ka (1/Ms), and the dissociation rate constant, kd (1/s), were calculated from the assay results. […] Furthermore, the pH-dependent binding was evaluated to calculate the KD ratio between pH 7.4 and pH 6.0 for each antibody.

human IL-6 (TORAY) [2] = target: T1, human IL-6 (TORAY); assay: Biacore, antibody on protein A/G, IL-6 analyte, 37C, pH 7.4
Protocol: as §1

[3] = target: T2, soluble human FcRn (complex of FcRn and beta2-microglobulin) (human, UniProt P55899 24-297; P61769 21-119); assay: Biacore pH 7.0
T2 construct: Secreted from HEK293H
Protocol: (§2) The binding between antibody and human FcRn was kinetically analyzed using Biacore T100 (GE Healthcare). […] An appropriate amount of protein L (ACTIGEN) was immobilized onto Sensor chip CM4 (GE Healthcare) by the amino coupling method, and the chip was allowed to capture an antibody of interest. Then, diluted FcRn solutions and running buffer (as a reference solution) were injected to allow human FcRn to interact with the antibody captured on the sensor chip. The running buffer used comprised 50 mmol/l sodium phosphate, 150 mmol/l NaCl, and 0.05% (w/v) Tween20 (pH 7.0). FcRn was diluted using each buffer. The chip was regenerated using 10 mmol/l glycine-HCl (pH 1.5). Assays were carried out exclusively at 25 degrees C. The association rate constant ka (1/Ms) and dissociation rate constant kd (1/s), both of which are kinetic parameters, were calculated based on the sensorgrams obtained in the assays, and KD (M) of each antibody for human FcRn was determined from these values. Each parameter was calculated using Biacore T100 Evaluation Software (GE Healthcare).

[4] = target: T2, soluble human FcRn (complex of FcRn and …); assay: Biacore pH 7.0; remark: listed apart in the source
Protocol: as §2

[5] = target: T2, soluble human FcRn (complex of FcRn and …); assay: Biacore pH 7.0; remark: listed apart in the source
Protocol: as §2

[6] = target: T3, soluble human plexin A1 (hsPlexin A1) (human, UniProt Q9UIW2 27-1243); assay: Biacore, antibody on protein A/G, hsPlexin A1 analyte, 37C, pH 6.0
T3 construct: range 27-1243
T3 sequence (Q9UIW2 other isoform, or with tags, fused parts or gaps limits assumed): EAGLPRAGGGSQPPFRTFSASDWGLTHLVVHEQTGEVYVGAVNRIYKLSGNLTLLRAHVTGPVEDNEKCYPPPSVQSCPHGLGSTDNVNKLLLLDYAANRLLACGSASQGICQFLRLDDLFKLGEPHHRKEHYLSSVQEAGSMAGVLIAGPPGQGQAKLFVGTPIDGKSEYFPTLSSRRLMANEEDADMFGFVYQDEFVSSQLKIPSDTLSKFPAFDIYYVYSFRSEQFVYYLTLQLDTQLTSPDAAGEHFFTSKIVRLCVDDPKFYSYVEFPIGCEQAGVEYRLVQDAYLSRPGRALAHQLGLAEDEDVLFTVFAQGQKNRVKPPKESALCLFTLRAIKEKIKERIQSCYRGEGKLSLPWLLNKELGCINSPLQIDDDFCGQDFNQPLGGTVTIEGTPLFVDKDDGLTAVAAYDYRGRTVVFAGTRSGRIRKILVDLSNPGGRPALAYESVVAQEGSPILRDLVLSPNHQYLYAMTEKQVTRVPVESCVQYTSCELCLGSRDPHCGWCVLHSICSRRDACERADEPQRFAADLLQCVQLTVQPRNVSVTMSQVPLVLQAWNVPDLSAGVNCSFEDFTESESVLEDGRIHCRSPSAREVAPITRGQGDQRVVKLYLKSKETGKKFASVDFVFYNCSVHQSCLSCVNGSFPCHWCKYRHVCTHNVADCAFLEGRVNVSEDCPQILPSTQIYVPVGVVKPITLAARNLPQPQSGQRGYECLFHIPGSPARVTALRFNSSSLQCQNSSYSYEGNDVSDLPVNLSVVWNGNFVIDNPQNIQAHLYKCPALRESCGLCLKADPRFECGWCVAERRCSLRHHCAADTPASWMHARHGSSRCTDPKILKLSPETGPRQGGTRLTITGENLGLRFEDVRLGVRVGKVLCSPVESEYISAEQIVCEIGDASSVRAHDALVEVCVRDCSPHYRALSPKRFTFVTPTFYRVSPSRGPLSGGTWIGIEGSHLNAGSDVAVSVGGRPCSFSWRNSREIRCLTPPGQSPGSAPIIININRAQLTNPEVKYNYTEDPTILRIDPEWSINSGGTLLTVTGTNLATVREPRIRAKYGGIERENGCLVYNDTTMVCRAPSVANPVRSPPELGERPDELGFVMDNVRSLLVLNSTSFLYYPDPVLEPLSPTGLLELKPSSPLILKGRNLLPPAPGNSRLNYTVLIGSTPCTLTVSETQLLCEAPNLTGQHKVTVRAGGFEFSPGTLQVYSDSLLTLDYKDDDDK
Protocol: (§3) Assay was carried out using 10 mmol/l ACES/150 mmol/l NaCl containing 0.05% Surfactant P20 (pH 7.4 and pH 6.0) as a running buffer. […] Assays were carried out at 37 degrees C. The assay results were analyzed using Biacore T100 Evaluation Software (GE Healthcare), and the association rate constant, ka (1/Ms), and the dissociation rate constant, kd (1/s), were calculated from the assay results. Then the KD (M) was calculated from ka and kd (Table 15). Furthermore, the pH-dependent binding was evaluated to calculate the KD ratio between pH 7.4 and pH 6.0 for each antibody.

[7] = target: T3, soluble human plexin A1 (hsPlexin A1); assay: Biacore, antibody on protein A/G, hsPlexin A1 analyte, 37C, pH 7.4
Protocol: as §3

[8] = target: T2, soluble human FcRn (complex of FcRn and …); assay: Biacore steady-state, antibody immobilized, pH 6.0, 25C
Protocol: The antibodies were tested as a test substance after direct immobilization onto Series S Sensor Chip CM5. Using an amino-coupling kit according to the supplier's instruction manual, the antibodies were immobilized onto Sensor Chip so as to secure an immobilization amount of 500 RU. The running buffer used was 50 mmol/l Na-phosphate/150 mmol/l NaCl containing 0.05% (v/v %) Surfactant P20 (pH 6.0).
With the prepared sensor chips, assay was carried out using as a running buffer, 50 mmol/l Na-phosphate/150 mmol/l NaCl containing 0.05% Surfactant P20 (pH 6.0) or 50 mmol/l Na-phosphate/150 mmol/l NaCl containing 0.05% Surfactant P20 (pH 7.4). Assays were carried out exclusively at 25 degrees C. The diluted human FcRn solutions and running buffer as a reference solution were injected at a flow rate of 5 microliter/min for ten minutes to allow for human FcRn to interact with the antibody on the chip. Next, the running buffer was injected at a flow rate of 5 microliter/min for one minute to monitor the dissociation of FcRn. […]
The assay results were analyzed using Biacore T100 Evaluation Software (Ver. 2.0.1). By a steady-state affinity method, the dissociation constant (KD) was calculated from the assay results at six different FcRn concentrations.

B1: CLB8-IgG1 (antibody, V domains shown)
VH: EVQLVESGGKLLKPGGSLKLSCAASGFTFSSFAMSWFRQSPEKRLEWVAEISSGGSYTYYPDTVTGRFTISRDNAKNTLYLEMSSLRSEDTAMYYCARGLWGYYALDYWGQGTSVTVSS
VL: QIVLIQSPAIMSASPGEKVTMTCSASSSVSYMYWYQQKPGSSPRLLIYDTSNLASGVPVRFSGSGSGTSYSLTISRMEAEDAATYYCQQWSGYPYTFGGGTKLEIKR
notes: chimeric anti-IL-6 antibody
Kd (human IL-6 (TORAY) [1]): 0.18 nM
koff (human IL-6 (TORAY) [1]): 0.00066 s⁻¹
kon (human IL-6 (TORAY) [1]): 3.7e+06 M⁻¹ s⁻¹
Kd (human IL-6 (TORAY) [2]): 0.22 nM
koff (human IL-6 (TORAY) [2]): 0.0008 s⁻¹
kon (human IL-6 (TORAY) [2]): 3.6e+06 M⁻¹ s⁻¹

B2: H16/L13-IgG1 (antibody, V domains shown)
VH: EVQLVESGGKLLKPGGSLKLSCAASGFTFSSHAMSWFRQSPEKRLEWVAEISSGGSYTYHPHTVTGRFTISRDNAKNTLYLEMSSLRSEDTAMYYCARGLWGHYALDYWGQGTSVTVSS
VL: QIVLIQSPAIMSASPGEKVTMTCSASSSVSYMYWYQQKPGSSPRLLIYDTSHHASGVPVRFSGSGSGTSYSLTISRMEAEDAATYYCHQWSGHPYTFGGGTKLEIKR
notes: chimeric anti-IL-6 antibody, pH-dependent
Kd (human IL-6 (TORAY) [1]): 16 nM
koff (human IL-6 (TORAY) [1]): 0.0059 s⁻¹
kon (human IL-6 (TORAY) [1]): 370000 M⁻¹ s⁻¹
Kd (human IL-6 (TORAY) [2]): 2.2 nM
koff (human IL-6 (TORAY) [2]): 0.0046 s⁻¹
kon (human IL-6 (TORAY) [2]): 2.1e+06 M⁻¹ s⁻¹

B3: IgG1-F162 (antibody)
heavy: QVQLQESGPGLVKPSETLSLTCAVSGHSISHDHAWSWVRQPPGEGLEWIGFISYSGITNYNPSLQGRVTISRDNSKNTLYLQMNSLRAEDTAVYYCARSLARTTAMDYWGEGTLVTVSSASTKGPSVFPLAPSSKSTSGGTAALGCLVKDYFPEPVTVSWNSGALTSGVHTFPAVLQSSGLYSLSSVVTVPSSSLGTQTYICNVNHKPSNTKVDKKVEPKSCDKTHTCPPCPAPELLGGPSVFLFPPKPKDTLWISRTPEVTCVVVDVSHEDPEVKFNWYVDGVEVHNAKTKPREEQYNSTYRVVSVLTVLHQDWLNGKEYKCKVSNKALPAPIEKTISKAKGQPREPQVYTLPPSRDELTKNQVSLTCLVKGFYPSDIAVEWESNGQPENNYKTTPPVLDSDGSFFLYSKLTVDKSRWQQGNVFSCSVYHEALHYHYTQKSLSLSP
light: not shown
notes: copies: 2 + 2
Kd [3]: 170 nM

B8: IgG1-F163 (antibody)
heavy: QVQLQESGPGLVKPSETLSLTCAVSGHSISHDHAWSWVRQPPGEGLEWIGFISYSGITNYNPSLQGRVTISRDNSKNTLYLQMNSLRAEDTAVYYCARSLARTTAMDYWGEGTLVTVSSASTKGPSVFPLAPSSKSTSGGTAALGCLVKDYFPEPVTVSWNSGALTSGVHTFPAVLQSSGLYSLSSVVTVPSSSLGTQTYICNVNHKPSNTKVDKKVEPKSCDKTHTCPPCPAPELLGGPSVFLFPPKPKDTLWISRTPEVTCVVVDVSHEDPEVKFNWYVDGVEVHNAKTKPREEQYNSTYRVVSVLTVLHQDWLNGKEYKCKVSNKALPAPIEKTISKAKGQPREPQVYTLPPSRDELTKNQVSLTCLVKGFYPSDIAVEWESNGQPENNYKTTPPVLDSDGSFFLYSKLTVDKSRWQQGNVFSCSVFHEALHYHYTQKSLSLSP
light: not shown
notes: copies: 2 + 2
Kd [3]: 350 nM

B9: IgG1-F292 (antibody)
heavy: QVQLQESGPGLVKPSETLSLTCAVSGHSISHDHAWSWVRQPPGEGLEWIGFISYSGITNYNPSLQGRVTISRDNSKNTLYLQMNSLRAEDTAVYYCARSLARTTAMDYWGEGTLVTVSSASTKGPSVFPLAPSSKSTSGGTAALGCLVKDYFPEPVTVSWNSGALTSGVHTFPAVLQSSGLYSLSSVVTVPSSSLGTQTYICNVNHKPSNTKVDKKVEPKSCDKTHTCPPCPAPELLGGPKVFLFPPKPKDTLYISRTPEVTCVVVDVSHEDPEVKFNWYVDGVEVHNAKTKPREEQYNSTYRVVSVLTPLHQDWLNGKEYKCKVSNKALPAPIEKTISKAKGQPREPQVYTLPPSRDELTKNQVSLTCLVKGFYPSDIAVEWASNGQPENNYKTTPPVLDSDGSFFLYSKLTVDKSRWQQGNVFSCSVIHEALHYHYTQKSLSLSP
light: not shown
notes: copies: 2 + 2
Kd [5]: 20 nM

B12: Fv4-IgG1 (antibody)
heavy: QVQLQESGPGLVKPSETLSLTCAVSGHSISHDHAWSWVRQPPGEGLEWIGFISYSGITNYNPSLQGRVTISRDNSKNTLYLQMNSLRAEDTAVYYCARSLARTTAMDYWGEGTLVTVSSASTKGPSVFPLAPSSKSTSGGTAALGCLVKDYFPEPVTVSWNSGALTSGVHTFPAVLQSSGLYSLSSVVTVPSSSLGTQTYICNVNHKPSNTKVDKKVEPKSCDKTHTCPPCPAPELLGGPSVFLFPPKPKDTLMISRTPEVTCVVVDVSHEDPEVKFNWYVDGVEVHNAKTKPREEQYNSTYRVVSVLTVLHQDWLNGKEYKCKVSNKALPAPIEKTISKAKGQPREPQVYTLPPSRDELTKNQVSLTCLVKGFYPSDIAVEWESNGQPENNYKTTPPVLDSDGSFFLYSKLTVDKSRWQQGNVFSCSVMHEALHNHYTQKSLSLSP
light: DIQMTQSPSSLSASVGDSVTITCQASTDISSHLNWYQQKPGKAPELLIYYGSHLLSGVPSRFSGSGSGTDFTFTISSLEAEDAATYYCGQGNRLPYTFGQGTKVEIERTVAAPSVFIFPPSDEQLKSGTASVVCLLNNFYPREAKVQWKVDNALQSGNSQESVTEQDSKDSTYSLSSTLTLSKADYEKHKVYACEVTHQGLSSPVTKSFNRGEC
notes: VH3-IgG1 and VL3-CK; copies: 2 + 2
Kd [8]: 1990 nM

Now from value to binder:

Kd [4]: 51 nM
B4: IgG1-F403 (antibody)
heavy: QVQLQESGPGLVKPSETLSLTCAVSGHSISHDHAWSWVRQPPGEGLEWIGFISYSGITNYNPSLQGRVTISRDNSKNTLYLQMNSLRAEDTAVYYCARSLARTTAMDYWGEGTLVTVSSASTKGPSVFPLAPSSKSTSGGTAALGCLVKDYFPEPVTVSWNSGALTSGVHTFPAVLQSSGLYSLSSVVTVPSSSLGTQTYICNVNHKPSNTKVDKKVEPKSCDKTHTCPPCPAPELLGGPSVFLFPPKPKDTLMISRTVEVTCVVVDVSHEDPEVKFNWYVDGVEVHNAKTKPREEQYNSTYRVVSVLAVLHQDWLNGKEYKCKVSNKALPAPIEKTISKAKGQPREPQVYTLPPSRDELTKNQVSLTCLVKGFYPSDIAVEWESNGQPENNYKTTPPVLDSDGSFFLYSKLTVDKSRWQQGNVFSCSVEHEALHWHYTQKSLSLSP
light: not shown
notes: M428E as printed; may be a misprint of M428L; copies: 2 + 2

Kd [5]: 18 nM
B5: IgG1-F308 (antibody)
heavy: QVQLQESGPGLVKPSETLSLTCAVSGHSISHDHAWSWVRQPPGEGLEWIGFISYSGITNYNPSLQGRVTISRDNSKNTLYLQMNSLRAEDTAVYYCARSLARTTAMDYWGEGTLVTVSSASTKGPSVFPLAPSSKSTSGGTAALGCLVKDYFPEPVTVSWNSGALTSGVHTFPAVLQSSGLYSLSSVVTVPSSSLGTQTYICNVNHKPSNTKVDKKVEPKSCDKTHTCPPCPAPELLGGPKVFLFPPKPKDTLWISRTPEVTCVVVDVSHEDPEVKFNWYVDGVEVHNAKTKPREEQYNSTYRVVSVLTPLHQDWLNGKEYKCKVSNKALPAPIEKTISKAKGQPREPQVYTLPPSRDELTKNQVSLTCLVKGFYPSDIAVEWASNGQPENNYKTTPPVLDSDGSFFLYSKLTVDKSRWQQGNVFSCSVYHEALHYHYTQKSLSLSP
light: not shown
notes: copies: 2 + 2

Kd [5]: 29 nM
B6: IgG1-F311 (antibody)
heavy: QVQLQESGPGLVKPSETLSLTCAVSGHSISHDHAWSWVRQPPGEGLEWIGFISYSGITNYNPSLQGRVTISRDNSKNTLYLQMNSLRAEDTAVYYCARSLARTTAMDYWGEGTLVTVSSASTKGPSVFPLAPSSKSTSGGTAALGCLVKDYFPEPVTVSWNSGALTSGVHTFPAVLQSSGLYSLSSVVTVPSSSLGTQTYICNVNHKPSNTKVDKKVEPKSCDKTHTCPPCPAPELLGGPKVFLFPPKPKDTLWISRTPEVTCVVVDVSHEDPEVKFNWYVDGVEVHNAKTKPREEQYNSTYRVVSVLTPLHQDWLNGKEYKCKVSNKALPAPIEKTISKAKGQPREPQVYTLPPSRDELTKNQVSLTCLVKGFYPSDIAVEWESNGQPENNYKTTPPVLDSDGSFFLYSKLTVDKSRWQQGNVFSCSVFHEALHYHYTQKSLSLSP
light: not shown
notes: copies: 2 + 2

Kd [4]: 10 nM
B7: IgG1-F379 (antibody)
heavy: QVQLQESGPGLVKPSETLSLTCAVSGHSISHDHAWSWVRQPPGEGLEWIGFISYSGITNYNPSLQGRVTISRDNSKNTLYLQMNSLRAEDTAVYYCARSLARTTAMDYWGEGTLVTVSSASTKGPSVFPLAPSSKSTSGGTAALGCLVKDYFPEPVTVSWNSGALTSGVHTFPAVLQSSGLYSLSSVVTVPSSSLGTQTYICNVNHKPSNTKVDKKVEPKSCDKTHTCPPCPAPELLGGPKVFLFPPKPKDTLWISREPEVTCVVVDVSHEDPEVKFNWYVDGVEVHNAKTKPREEQYNSTYRVVSVLTPLHADWLNGKEYKCKVSNKALPAPIEKTISKAKGQPREPQVYTLPPSRDELTKNQVSLTCLVKGFYPSDIAVEWESNGQPENNYKTTPPVLDSDGSFFLYSKLTVDKSRWQQGNVFSCSVYHEALHYHYTQKSLSLSP
light: not shown
notes: copies: 2 + 2

Kd [4]: 9.5 nM
B10: IgG1-F376 (antibody)
heavy: QVQLQESGPGLVKPSETLSLTCAVSGHSISHDHAWSWVRQPPGEGLEWIGFISYSGITNYNPSLQGRVTISRDNSKNTLYLQMNSLRAEDTAVYYCARSLARTTAMDYWGEGTLVTVSSASTKGPSVFPLAPSSKSTSGGTAALGCLVKDYFPEPVTVSWNSGALTSGVHTFPAVLQSSGLYSLSSVVTVPSSSLGTQTYICNVNHKPSNTKVDKKVEPKSCDKTHTCPPCPAPELLGGPKVFLFPPKPKDTLYISREPEVTCVVVDVSHEFPEVKFNWYVDGVEVHEAKTKPREEQYNSTYRVVSVLTPLHQDWLNGKEYKCKVSNKALPAPIEKTISKAKGQPREPQVYTLPPSRDELTKNQVSLTCLVKGFYPSDIAVEWESNGQPENNYKTTPPVLDSDGSFFLYSKLTVDKSRWQQGNVFSCSVMHEALHYHYTQKSLSLSP
light: not shown
notes: copies: 2 + 2

Kd [6]: 63 nM
koff [6]: 0.0049 s⁻¹
kon [6]: 79000 M⁻¹ s⁻¹
Kd [7]: 4.2 nM
koff [7]: 0.00064 s⁻¹
kon [7]: 150000 M⁻¹ s⁻¹
B11: PX141-IgG1 (antibody, V domains shown)
VH: QEQLEESGGGLVKPEGSLTLTCKASGFDFSSYYYMCWVRQAPGKGLEWIGCIVTGSYGRSWYASWAKGRFTITRSTSLNTVTLQLNSLTAADTATYFCARDPFVIASSHYQNLWGPGTLVTVSS
VL: ALVMTQTPSPVSAAVGGTVTISCQSSPNIYNNYLSWYQQKPGQPPKLLIYRASNLETGVPSRFSGSGSGTQFTLTISDVQCDDAATYYCAGYKSYDNDDNAFGGGTEVVVKR
notes: chimeric anti-plexin A1 antibody, pH-dependent

Kd [6]: 4.4 nM
koff [6]: 0.00027 s⁻¹
kon [6]: 63000 M⁻¹ s⁻¹
Kd [7]: 5.4 nM
koff [7]: 0.00028 s⁻¹
kon [7]: 52000 M⁻¹ s⁻¹
B13: PX268-IgG1 (antibody, V domains shown)
VH: QSLEESGGDLVKPGASLTLTCTASGFSFSSNYWIYWVRQAPGKGLEWIACIYIGSDSAYYASWAKGRFTISKTSSTTVTLQMTSLTAADTATYFCARWDNSGRALKLWGPGTLVTVSS
VL: QMLTQTASPVSAAVGGTVTIKCQSSQSVADNNHLSWYQQKPGQPPKLLIYFASTLASGVSSRFKGSGSGTQFTLTISDVQCDDAATYYCLGNYDCGSADCHAFGGGTEVVVKR
notes: chimeric anti-plexin A1 antibody
